The text below walks through data of patent publication US20160184455A1.

The target in the assay is MaxiK channel of rat bladder detrusor smooth muscle (endogenous) (rat) (UniProt Q62976). In words: cell-based or functional assay.

A value given as a limit tells only on which side of the number the result lay.

Sequence of UniProt Q62976 (Q62976 whole entry): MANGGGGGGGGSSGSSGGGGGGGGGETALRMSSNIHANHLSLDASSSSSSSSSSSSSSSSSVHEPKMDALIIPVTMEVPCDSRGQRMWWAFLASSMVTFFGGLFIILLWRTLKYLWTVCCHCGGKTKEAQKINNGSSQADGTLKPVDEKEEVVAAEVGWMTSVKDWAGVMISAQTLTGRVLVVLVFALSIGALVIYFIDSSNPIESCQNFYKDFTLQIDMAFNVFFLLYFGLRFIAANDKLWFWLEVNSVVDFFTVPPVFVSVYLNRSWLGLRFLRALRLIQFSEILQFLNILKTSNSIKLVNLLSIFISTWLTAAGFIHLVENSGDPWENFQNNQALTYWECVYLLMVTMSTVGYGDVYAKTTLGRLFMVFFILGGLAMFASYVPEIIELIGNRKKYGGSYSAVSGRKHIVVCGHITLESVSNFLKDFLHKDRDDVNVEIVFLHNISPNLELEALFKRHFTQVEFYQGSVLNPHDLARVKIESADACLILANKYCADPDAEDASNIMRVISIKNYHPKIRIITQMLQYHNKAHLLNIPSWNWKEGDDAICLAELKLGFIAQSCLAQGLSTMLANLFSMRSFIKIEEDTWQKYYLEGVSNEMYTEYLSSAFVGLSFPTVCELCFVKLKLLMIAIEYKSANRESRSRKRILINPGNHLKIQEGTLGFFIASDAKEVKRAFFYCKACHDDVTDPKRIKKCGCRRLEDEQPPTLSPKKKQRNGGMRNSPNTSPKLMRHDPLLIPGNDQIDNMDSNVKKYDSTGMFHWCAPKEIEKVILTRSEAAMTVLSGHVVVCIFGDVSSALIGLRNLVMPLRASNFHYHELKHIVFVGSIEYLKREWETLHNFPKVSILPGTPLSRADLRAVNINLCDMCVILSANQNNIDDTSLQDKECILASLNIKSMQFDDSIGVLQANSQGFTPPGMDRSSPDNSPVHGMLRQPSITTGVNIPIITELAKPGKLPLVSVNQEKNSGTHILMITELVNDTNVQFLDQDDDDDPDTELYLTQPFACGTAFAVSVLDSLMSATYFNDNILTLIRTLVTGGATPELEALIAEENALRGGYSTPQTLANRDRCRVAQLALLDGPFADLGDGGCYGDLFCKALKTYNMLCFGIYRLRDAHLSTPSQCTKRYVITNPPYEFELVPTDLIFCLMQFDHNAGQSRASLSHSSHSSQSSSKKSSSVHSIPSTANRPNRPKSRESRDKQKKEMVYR

“iberiotoxin (IBTX) (from UniProt P24663 1-37) (peptide)”: the outward current in response to applied voltage, single whole cell patch clamp of detrusor cells before and after 300 nM IBTX is over 50%.
